Reference: patent US20120276102A1 (Pfizer, published 2012)

Legend:
[1] = biological target: human IL-21R expressed on cells (human, UniProt Q9HBE5 20-538); assay: cell-based or functional assay
[2] = biological target: murine IL-21R expressed on cells (murine, UniProt Q9JHX3 20-529); assay: cell-based or functional assay
[3] = biological target: T1, murine IL-21R extracellular domain His-Flag fusion protein (murine, UniProt Q9JHX3 20-237); assay: competition ELISA; competitor plate-bound 18A5 IgG
T1 construct: Biotinylated in the ELISAs; also called mIL-21R-H/F; murine IL-21R-H/F
Description: Blocked plates were washed 3× with PBS, and 50 μl/well of scFv/IL-21R mixtures were transferred to the appropriate plates and incubated for 1 hr at RT. Plates were washed 5× with PBS prior to the addition of a 1:6000 dilution of horseradish peroxidase-conjugated streptavidin (Southern Biotech, Birmingham, Ala.) secondary antibody to detect bound biotinylated mIL-21R-H/F. Plates were then incubated for 1 hr at RT and washed 7× with PBS. Signal was developed using 3,3′,5,5′-tetramethylbenzidine (TMB), the reaction stopped with H₂SO₄, and the absorbance read at 450 nm on an ENVISION™ plate reader (Perkin Elmer).

Chain of human IL-21R expressed on cells (Q9HBE5 20-538 limits assumed): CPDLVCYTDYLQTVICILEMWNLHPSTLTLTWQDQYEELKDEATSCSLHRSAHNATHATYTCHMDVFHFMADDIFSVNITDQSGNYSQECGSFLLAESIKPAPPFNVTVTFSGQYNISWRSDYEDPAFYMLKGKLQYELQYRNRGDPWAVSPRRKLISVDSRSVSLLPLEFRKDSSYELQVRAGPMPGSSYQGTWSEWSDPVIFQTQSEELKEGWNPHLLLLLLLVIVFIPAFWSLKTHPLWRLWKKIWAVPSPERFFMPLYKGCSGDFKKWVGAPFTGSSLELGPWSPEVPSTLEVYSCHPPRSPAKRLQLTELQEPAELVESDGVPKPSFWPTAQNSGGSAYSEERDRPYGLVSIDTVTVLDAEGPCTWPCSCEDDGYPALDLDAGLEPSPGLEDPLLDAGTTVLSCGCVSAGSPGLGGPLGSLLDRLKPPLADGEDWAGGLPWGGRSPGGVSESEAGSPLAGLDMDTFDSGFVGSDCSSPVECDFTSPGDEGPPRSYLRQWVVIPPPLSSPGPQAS

| Binder | IC50, Human IL-21R-BaF3 Neutralization Assay [1] [nM] | IC50, Human IL-21R-TF1 Neutralization Assay [1] [nM] | IC50, Murine IL-21R-BaF3 Neutralization Assay [2] [nM] | IC50 [3] [nM] |
| --- | --- | --- | --- | --- |
| scFv H3 (scFv) scFv: QVQLQESGPGLVKTSETLSLTCAVSGYSISSGYYWGWIRQPPGKGLEWIGSISHTGNTYYNPPLKSRVTISVDTSKNQFSLKLSSVTAADTAVYYCARFMGFGRPEYWGKGTLVTVSSGGGGSGGGGSGGGGSALSSELTQDPPVSVALGQTVTLTCQGDSLRTYYASWYQQKSGQAPILLLYGKHKRPSGIPDRFSGSTSGDTASLTITGAQAEDEADYYCNSRDSSGNPHVLFGGGTQLTVL | 7.7 | 98.1 | 25.7 | 14 |
| scFv H4 (scFv) scFv: QVQLQESGPGLVKTSETLSLTCAVSGYSISSGYYWGWIRQPPGKGLEWIGSISHTGNTYYNPPLKSRVTISVDTSKNQFSLKLSSVTAADTAVYYCARWLGFGRPEYWGKGTLVTVSSGGGGSGGGGSGGGGSALSSELTQDPPVSVALGQTVTLTCQGDSLRTYYASWYQQKSGQAPILLLYGKHKRPSGIPDRFSGSTSGDTASLTITGAQAEDEADYYCNSRDSSGNPHVLFGGGTQLTVL | 3.8 | 9.3 |  |  |
| scFv L1 (scFv) scFv: QVQLQESGPGLVKTSETLSLTCAVSGYSISSGYYWGWIRQPPGKGLEWIGSISHTGNTYYNPPLKSRVTISVDTSKNQFSLKLSSVTAADTAVYYCARGGGISRPEYWGKGTLVTVSSGGGGSGGGGSGGGGSALSSELTQDPPVSVALGQTVTLTCQGDSLRTYYASWYQQKSGQAPILLLYGKHKRPSGIPDRFSGSTSGDTASLTITGAQAEDEADYYCASRSVSGNPHVLFGGGTQLTVL | 3.7 | ~55 | 28.8 | 7 |
| scFv H5 (scFv) scFv: QVQLQESGPGLVKTSETLSLTCAVSGYSISSGYYWGWIRQPPGKGLEWIGSISHTGNTYYNPPLKSRVTISVDTSKNQFSLKLSSVTAADTAVYYCARFLGFGRPEYWGKGTLVTVSSGGGGSGGGGSGGGGSALSSELTQDPPVSVALGQTVTLTCQGDSLRTYYASWYQQKSGQAPILLLYGKHKRPSGIPDRFSGSTSGDTASLTITGAQAEDEADYYCNSRDSSGNPHVLFGGGTQLTVL | 7.9 | 178 | 53.7 | 17 |
| scFv L2 (scFv) scFv: QVQLQESGPGLVKTSETLSLTCAVSGYSISSGYYWGWIRQPPGKGLEWIGSISHTGNTYYNPPLKSRVTISVDTSKNQFSLKLSSVTAADTAVYYCARGGGISRPEYWGKGTLVTVSSGGGGSGGGGSGGGGSALSSELTQDPPVSVALGQTVTLTCQGDSLRTYYASWYQQKSGQAPILLLYGKHKRPSGIPDRFSGSTSGDTASLTITGAQAEDEADYYCVARSVVGNPHVLFGGGTQLTVL | 3.1 | 37.5 | 2.41 | 5 |
| scFv L4 (scFv) scFv: QVQLQESGPGLVKTSETLSLTCAVSGYSISSGYYWGWIRQPPGKGLEWIGSISHTGNTYYNPPLKSRVTISVDTSKNQFSLKLSSVTAADTAVYYCARGGGISRPEYWGKGTLVTVSSGGGGSGGGGSGGGGSALSSELTQDPPVSVALGQTVTLTCQGDSLRTYYASWYQQKSGQAPILLLYGKHKRPSGIPDRFSGSTSGDTASLTITGAQAEDEADYYCSTRSSKGNPHVLFGGGTQLTVL | 2.1 | ~60 |  | 8 |
| scFv L5 (scFv) scFv: QVQLQESGPGLVKTSETLSLTCAVSGYSISSGYYWGWIRQPPGKGLEWIGSISHTGNTYYNPPLKSRVTISVDTSKNQFSLKLSSVTAADTAVYYCARGGGISRPEYWGKGTLVTVSSGGGGSGGGGSGGGGSALSSELTQDPPVSVALGQTVTLTCQGDSLRTYYASWYQQKSGQAPILLLYGKHKRPSGIPDRFSGSTSGDTASLTITGAQAEDEADYYCASRSSKGNPHVLFGGGTQLTVL | 2.1 | ~20 | 38.5 | 7 |
| scFv L3 (scFv) scFv: QVQLQESGPGLVKTSETLSLTCAVSGYSISSGYYWGWIRQPPGKGLEWIGSISHTGNTYYNPPLKSRVTISVDTSKNQFSLKLSSVTAADTAVYYCARGGGISRPEYWGKGTLVTVSSGGGGSGGGGSGGGGSALSSELTQDPPVSVALGQTVTLTCQGDSLRTYYASWYQQKSGQAPILLLYGKHKRPSGIPDRFSGSTSGDTASLTITGAQAEDEADYYCVSRAVVGNPHVLFGGGTQLTVL | 27.6 | ~7 | 13.8 | 100 |
| scFv H6 (scFv) scFv: QVQLQESGPGLVKTSETLSLTCAVSGYSISSGYYWGWIRQPPGKGLEWIGSISHTGNTYYNPPLKSRVTISVDTSKNQFSLKLSSVTAADTAVYYCARFFGFGRPEYWGKGTLVTVSSGGGGSGGGGSGGGGSALSSELTQDPPVSVALGQTVTLTCQGDSLRTYYASWYQQKSGQAPILLLYGKHKRPSGIPDRFSGSTSGDTASLTITGAQAEDEADYYCNSRDSSGNPHVLFGGGTQLTVL | 13.8 | ~150 |  | 13 |

Further lines, results first:

| IC50, Human IL-21R-BaF3 Neutralization Assay [1] [nM] | IC50, Human IL-21R-TF1 Neutralization Assay [1] [nM] | IC50, Murine IL-21R-BaF3 Neutralization Assay [2] [nM] | IC50 [3] [nM] | Binder |
| --- | --- | --- | --- | --- |
| 4.2 | 38.3 | 10 | 6 | scFv L11 (scFv) scFv: QVQLQESGPGLVKTSETLSLTCAVSGYSISSGYYWGWIRQPPGKGLEWIGSISHTGNTYYNPPLKSRVTISVDTSKNQFSLKLSSVTAADTAVYYCARGGGISRPEYWGKGTLVTVSSGGGGSGGGGSGGGGSALSSELTQDPPVSVALGQTVTLTCQGDSLRTYYASWYQQKSGQAPILLLYGKHKRPSGIPDRFSGSTSGDTASLTITGAQAEDEADYYCSSRSRHGNPHVLFGGGTQLTVL |
| 2.6 | 54.9 | 87.8 | 8 | scFv L12 (scFv) scFv: QVQLQESGPGLVKTSETLSLTCAVSGYSISSGYYWGWIRQPPGKGLEWIGSISHTGNTYYNPPLKSRVTISVDTSKNQFSLKLSSVTAADTAVYYCARGGGISRPEYWGKGTLVTVSSGGGGSGGGGSGGGGSALSSELTQDPPVSVALGQTVTLTCQGDSLRTYYASWYQQKSGQAPILLLYGKHKRPSGIPDRFSGSTSGDTASLTITGAQAEDEADYYCVARGTRGNPHVLFGGGTQLTVL |
| 1.5 | 15.3 |  | 12 | scFv L23 (scFv) scFv: QVQLQESGPGLVKTSETLSLTCAVSGYSISSGYYWGWIRQPPGKGLEWIGSISHTGNTYYNPPLKSRVTISVDTSKNQFSLKLSSVTAADTAVYYCARGGGISRPEYWGKGTLVTVSSGGGGSGGGGSGGGGSALSSELTQDPPVSVALGQTVTLTCQGDSLRTYYASWYQQKSGQAPILLLYGKHKRPSGIPDRFSGSTSGDTASLTITGAQAEDEADYYCSARSVRGNPHVLFGGGTQLTVL |
| 15.1 | 7 |  | 40 | scFv L10 (scFv) scFv: QVQLQESGPGLVKTSETLSLTCAVSGYSISSGYYWGWIRQPPGKGLEWIGSISHTGNTYYNPPLKSRVTISVDTSKNQFSLKLSSVTAADTAVYYCARGGGISRPEYWGKGTLVTVSSGGGGSGGGGSGGGGSALSSELTQDPPVSVALGQTVTLTCQGDSLRTYYASWYQQKSGQAPILLLYGKHKRPSGIPDRFSGSTSGDTASLTITGAQAEDEADYYCISRSIYGNPHVLFGGGTQLTVL |
| 4.1 | 51.3 | 715 | 7 | scFv L8 (scFv) scFv: QVQLQESGPGLVKTSETLSLTCAVSGYSISSGYYWGWIRQPPGKGLEWIGSISHTGNTYYNPPLKSRVTISVDTSKNQFSLKLSSVTAADTAVYYCARGGGISRPEYWGKGTLVTVSSGGGGSGGGGSGGGGSALSSELTQDPPVSVALGQTVTLTCQGDSLRTYYASWYQQKSGQAPILLLYGKHKRPSGIPDRFSGSTSGDTASLTITGAQAEDEADYYCTTRSTQGNPHVLFGGGTQLTVL |
| 2.8 | 27.7 | 3.61 | 7 | scFv L9 (scFv) scFv: QVQLQESGPGLVKTSETLSLTCAVSGYSISSGYYWGWIRQPPGKGLEWIGSISHTGNTYYNPPLKSRVTISVDTSKNQFSLKLSSVTAADTAVYYCARGGGISRPEYWGKGTLVTVSSGGGGSGGGGSGGGGSALSSELTQDPPVSVALGQTVTLTCQGDSLRTYYASWYQQKSGQAPILLLYGKHKRPSGIPDRFSGSTSGDTASLTITGAQAEDEADYYCVARSNKGNPHVLFGGGTQLTVL |
| 5.9 | ~150 | 0.29 | 4 | scFv L6 (scFv) scFv: QVQLQESGPGLVKTSETLSLTCAVSGYSISSGYYWGWIRQPPGKGLEWIGSISHTGNTYYNPPLKSRVTISVDTSKNQFSLKLSSVTAADTAVYYCARGGGISRPEYWGKGTLVTVSSGGGGSGGGGSGGGGSALSSELTQDPPVSVALGQTVTLTCQGDSLRTYYASWYQQKSGQAPILLLYGKHKRPSGIPDRFSGSTSGDTASLTITGAQAEDEADYYCMSRSIWGNPHVLFGGGTQLTVL |
